System: peptide library, one residue held at a place counted from the S/T acceptor
Assay: relative phosphorylation of the sub-library (ratio to the mean residue at this position); human; higher = residue favoured
Procedure, shortened: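 Purified recombinant kinases (human or orthologue constructs) were incubated in 384-well plates with biotinylated degenerate peptide sub-libraries, each fixing one residue at one position around a central Ser/Thr. Peptides were at 50 μM, with 50 μM ATP spiked with γ-32P-ATP, for 90 min under kinase-specific conditions. Spots on streptavidin membranes were phosphorimaged and quantified by densitometry. Relative sub-library phosphorylation is a ratio to the mean residue at that position.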

MAP4K5, construct: Full length, sequence (Q9Y4K4 whole entry, looked up): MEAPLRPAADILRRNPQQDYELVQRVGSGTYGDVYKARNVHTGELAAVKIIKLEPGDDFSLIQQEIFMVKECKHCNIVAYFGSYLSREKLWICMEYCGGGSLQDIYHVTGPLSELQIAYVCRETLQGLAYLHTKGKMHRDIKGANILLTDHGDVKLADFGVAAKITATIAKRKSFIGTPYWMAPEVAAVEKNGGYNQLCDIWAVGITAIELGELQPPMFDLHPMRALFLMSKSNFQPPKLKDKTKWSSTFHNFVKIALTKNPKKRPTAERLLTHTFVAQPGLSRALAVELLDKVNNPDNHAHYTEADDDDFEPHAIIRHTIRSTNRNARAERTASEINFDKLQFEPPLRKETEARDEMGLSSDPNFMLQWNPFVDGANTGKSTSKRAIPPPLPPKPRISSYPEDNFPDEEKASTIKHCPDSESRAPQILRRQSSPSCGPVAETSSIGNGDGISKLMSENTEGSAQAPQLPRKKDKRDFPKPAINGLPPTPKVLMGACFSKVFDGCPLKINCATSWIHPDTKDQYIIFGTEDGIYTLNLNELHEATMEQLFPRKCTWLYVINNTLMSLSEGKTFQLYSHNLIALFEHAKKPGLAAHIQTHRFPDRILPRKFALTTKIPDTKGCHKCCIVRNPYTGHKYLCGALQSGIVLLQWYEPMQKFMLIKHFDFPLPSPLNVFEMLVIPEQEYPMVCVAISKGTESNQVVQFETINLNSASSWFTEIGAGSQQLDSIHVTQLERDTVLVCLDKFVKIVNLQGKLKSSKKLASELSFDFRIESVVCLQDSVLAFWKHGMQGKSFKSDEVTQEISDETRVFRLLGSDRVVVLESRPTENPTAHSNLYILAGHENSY

PRKACB, construct: Full length (from UniProt P22694)
relative phosphorylation
Conditions	at +1	at +2	at +3	at +4	at -1	at -2	at -3	at -4	at -5
A fixed	0.818	1.26	0.948	0.9	0.875	0.426	0.62	1.15	1.18
D fixed	0.607	1.56	1.15	1.36	0.667	0.196	0.231	0.657	0.772
E fixed	0.649	0.788	1.04	1.3	0.49	0.167	0.252	0.816	0.736
F fixed	0.811	0.684	0.72	0.689	0.455	0.209	0.213	0.486	0.594
G fixed	0.87	1.29	1.29	1.15	1.47	0.436	0.625	1.51	1.42
H fixed	1.22	1.7	1.45	1.05	1.22	0.786	1.34	1.27	1.22
I fixed	1.21	0.573	0.488	0.705	0.265	0.2	0.127	0.471	0.394
K fixed	1.06	0.797	0.927	0.89	1.92	3.26	2.66	1.93	2.25
L fixed	1.06	0.634	0.785	0.713	0.648	0.219	0.183	0.532	0.557
M fixed	1.46	0.701	0.79	0.747	0.856	0.25	0.204	0.782	0.601
N fixed	1.2	1.23	1.24	1.25	1.52	0.566	0.495	1.04	0.983
P fixed	0.382	1.29	1.58	1.74	1.44	0.271	0.824	1.19	1.21
Q fixed	1.3	1.23	1.22	1.34	1.17	0.555	0.715	1.04	0.97
R fixed	1.35	0.937	1.04	0.93	2.14	8.75	7.65	2.38	2.14
V fixed	0.892	0.59	0.517	0.877	0.446	0.191	0.184	0.482	0.605
W fixed	1.05	1.03	0.964	0.66	0.577	0.236	0.329	0.6	0.746
Y fixed	1.06	0.709	0.855	0.698	0.839	0.276	0.354	0.67	0.624
pThr fixed	0.988	0.988	0.984	1.67	0.443	0.319	0.474	0.789	0.727
pTyr fixed	1.06	1	1.24	1.37	0.979	0.276	0.451	0.775	0.82

MAP4K5, construct: Full length (from UniProt Q9Y4K4)
relative phosphorylation
Conditions	at +1	at +2	at +3	at +4	at -1	at -2	at -3	at -4	at -5
A fixed	0.585	0.999	0.641	0.969	0.963	1.36	0.963	1.03	1.3
D fixed	0.17	0.718	0.375	0.726	0.63	0.491	0.59	0.756	0.739
E fixed	0.173	0.581	0.319	0.67	0.455	0.368	0.553	0.812	0.721
F fixed	1.1	0.535	0.704	0.783	0.704	1.07	0.744	0.995	0.974
G fixed	0.585	1.04	0.891	1.21	1.79	1.43	1.37	1.33	1.42
H fixed	0.605	1.13	1.23	1.14	1.3	1.41	1.21	1.09	1.02
I fixed	1.89	0.373	0.468	0.709	0.294	0.645	0.528	0.684	0.66
K fixed	0.599	2.46	1.81	1.8	1.43	0.905	2.01	1.25	1.3
L fixed	3.52	0.673	0.672	0.796	0.816	0.636	0.628	0.76	0.607
M fixed	2.8	0.797	0.688	0.88	1	0.773	0.697	0.853	0.819
N fixed	0.506	1.02	0.973	1.04	1.43	1.18	1.13	0.933	0.943
P fixed	0.32	1.13	1.14	1.12	1.2	1.07	0.999	1.24	1.37
Q fixed	0.558	1.12	0.907	1.1	1.01	0.806	1.1	0.96	0.877
R fixed	0.697	2.53	3.55	1.49	1.65	1.36	1.77	1.25	1.25
V fixed	0.78	0.513	0.609	0.718	0.362	0.77	0.591	0.78	0.906
W fixed	1.28	0.647	1.08	0.951	0.778	1.3	1.13	1.23	1.07
Y fixed	0.832	0.738	0.94	0.9	1.19	1.43	0.989	1.05	1.02
pThr fixed	0.61	0.623	0.7	0.522	0.433	0.776	0.874	0.936	1.02
pTyr fixed	0.326	0.397	0.716	0.56	0.602	0.695	0.91	0.881	1.1
